Assay results from publication PMC12607630, “ZapC crosslinks FtsZ filaments through a dual-binding mechanism modulated by the intrinsically disordered linker of FtsZ in Escherichia coli” (mBio, 2025).
“And” between values parts separate entries of the source, which are not always exact repeats. Equal entries are not always repeated.

Tests used:
Assay in all cases: BLI; 6×His-ZapC or its mutants (0.5 µM) loaded on Ni-NTA biosensors, untagged FtsZ or its variants in solution; Octet-Red96, 30°C, 1× Pol buffer (50 mM HEPES-NaOH pH 6.8, 50 mM KCl, 10 mM MgCl2); apparent Kd from the signal at the end of association against concentration, one-site fit; three repeats with mean (X) and SD
Settings in all cases: both partners purified
FtsZ 1-330 (untagged) = biological target: T1, FtsZ 1-330 (untagged) (Escherichia coli, UniProt P0A9A6 1-330)
T1 construct: FtsZ of Escherichia coli, residues 1-330; lacks most of the CTL and the CTP; Primers BsaI-out-F and 330XbaI-out-R; forward primer starts at codon 2; source: E. coli BL21(DE3), plasmid pLY340, purified (Ni-NTA); 6×His-SUMO tag removed with Ulp1; not shown: 6×His-SUMO, N-terminal, cleaved
T1 sequence (looked up): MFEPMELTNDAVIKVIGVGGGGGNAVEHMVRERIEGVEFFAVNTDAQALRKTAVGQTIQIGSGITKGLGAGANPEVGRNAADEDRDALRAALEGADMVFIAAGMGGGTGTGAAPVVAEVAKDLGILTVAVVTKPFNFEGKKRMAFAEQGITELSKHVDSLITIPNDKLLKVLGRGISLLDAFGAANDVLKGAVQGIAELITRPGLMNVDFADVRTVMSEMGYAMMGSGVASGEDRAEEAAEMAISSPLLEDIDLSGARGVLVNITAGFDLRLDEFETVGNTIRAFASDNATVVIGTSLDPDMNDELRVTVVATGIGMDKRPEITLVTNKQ

FtsZ 1-370 (untagged) = biological target: T2, FtsZ 1-370 (untagged) (Escherichia coli, UniProt P0A9A6 1-370)
T2 construct: FtsZ of Escherichia coli, residues 1-370; lacks the CTP; Primers BsaI-out-F and 370XbaI-out-R; forward primer starts at codon 2; source: E. coli BL21(DE3), plasmid pLY341, purified (Ni-NTA); 6×His-SUMO tag removed with Ulp1; not shown: 6×His-SUMO, N-terminal, cleaved
T2 sequence (looked up): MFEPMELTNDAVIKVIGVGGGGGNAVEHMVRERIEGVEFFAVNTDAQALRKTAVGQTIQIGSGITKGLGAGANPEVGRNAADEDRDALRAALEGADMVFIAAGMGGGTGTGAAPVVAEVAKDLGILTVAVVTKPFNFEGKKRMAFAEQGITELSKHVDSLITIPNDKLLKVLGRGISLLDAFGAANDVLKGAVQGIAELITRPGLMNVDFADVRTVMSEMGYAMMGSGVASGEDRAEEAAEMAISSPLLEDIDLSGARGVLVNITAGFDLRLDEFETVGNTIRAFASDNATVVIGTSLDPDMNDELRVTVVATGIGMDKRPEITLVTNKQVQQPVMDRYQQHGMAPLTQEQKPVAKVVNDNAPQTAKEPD

FtsZ D360Y (untagged) = biological target: T3, FtsZ D360Y (untagged) (Escherichia coli, UniProt P0A9A6 1-383, D360Y)
T3 construct: FtsZ of Escherichia coli with D360Y (CTL); Derivative of pLY17 by site-directed mutagenesis; source: E. coli BL21(DE3), plasmid pLY339, purified (Ni-NTA); 6×His-SUMO tag removed with Ulp1; not shown: 6×His-SUMO, N-terminal, cleaved
T3 sequence (looked up): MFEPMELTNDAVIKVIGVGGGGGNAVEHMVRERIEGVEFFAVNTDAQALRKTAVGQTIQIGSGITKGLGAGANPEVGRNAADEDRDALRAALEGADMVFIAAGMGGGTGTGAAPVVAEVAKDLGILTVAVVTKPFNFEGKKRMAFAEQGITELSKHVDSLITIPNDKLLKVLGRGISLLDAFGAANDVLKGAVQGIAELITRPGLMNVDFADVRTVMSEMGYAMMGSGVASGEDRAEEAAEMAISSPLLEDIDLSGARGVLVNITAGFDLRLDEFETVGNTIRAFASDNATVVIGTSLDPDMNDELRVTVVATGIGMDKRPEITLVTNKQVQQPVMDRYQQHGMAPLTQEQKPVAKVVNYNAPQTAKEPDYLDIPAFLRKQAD

FtsZ 1-316 (untagged) = biological target: T4, FtsZ 1-316 (untagged) (Escherichia coli, UniProt P0A9A6 1-316)
T4 construct: lacks the entire CTL and the CTP; source: E. coli BL21(DE3), plasmid pLY343, purified (Ni-NTA); 6×His-SUMO tag removed with Ulp1; not shown: 6×His-SUMO, N-terminal, cleaved
T4 sequence (looked up): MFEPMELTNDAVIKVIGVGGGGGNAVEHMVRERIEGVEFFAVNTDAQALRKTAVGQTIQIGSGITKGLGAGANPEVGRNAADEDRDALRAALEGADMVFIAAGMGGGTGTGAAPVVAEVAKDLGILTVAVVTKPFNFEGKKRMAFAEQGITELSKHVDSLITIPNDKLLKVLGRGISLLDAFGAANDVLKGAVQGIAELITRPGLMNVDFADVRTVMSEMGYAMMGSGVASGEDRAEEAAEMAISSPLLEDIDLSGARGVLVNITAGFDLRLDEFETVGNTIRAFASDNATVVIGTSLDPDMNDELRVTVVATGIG

B1: 6×His-ZapC (natural protein)
chain: not shown
notes: ZapC, FtsZ-associated protein of Escherichia coli; Construction of pSD323 is not described; also called His-tagged ZapC; source: E. coli, plasmid pSD323 (pQE80, Plac::6×His-ZapC), purified (Ni-NTA); not shown: His6, N-terminal, kept
- Kd (FtsZ 1-330 (untagged)): 1610 nM and 1810 nM and 1590 nM and 1670 nM
- Kd (FtsZ 1-370 (untagged)): 1540 nM and 1190 nM and 1260 nM and 1330 nM
- Kd (FtsZ D360Y (untagged)): 573 nM and 823 nM and 735 nM and 710 nM
- Kd (FtsZ 1-316 (untagged)): 1540 nM and 1910 nM and 1290 nM and 1580 nM
